From patent publication US20140314790A1 (ALBERT EINSTEIN COLLEGE OF MEDICINE OF YESHIVA UNIVERSITY, published 2014) come the findings set out here.

Assay [1] addresses T1, amyloid precursor protein (APP), transfected into HeLa or HEK293 cells (UniProt P05067 18-770).
T1 construct: whole, on cells; Scheinfeld et al, 2002)'; also called mature APP; HeLa-APP
Briefly: α-Flag IP from HeLa/APP cells incubated with Flagged peptide, Western blot for APP. (In western blotting, separated proteins are transferred to a membrane and probed.)

Assay [2] deals with T2, β-CTF (C-terminal fragment of APP made by β-secretase cleavage) (UniProt P05067 672-770).
T2 construct: domain: β-CTF; also called APP-CTF
Briefly: α-Flag IP from HeLa/APP cells incubated with N3-2A-F, Western blot for APP-CTFs.

T2 sequence (P05067 672-770 limits assumed): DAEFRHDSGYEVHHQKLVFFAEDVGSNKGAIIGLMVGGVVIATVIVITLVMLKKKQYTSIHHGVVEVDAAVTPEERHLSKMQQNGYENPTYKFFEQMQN
T1 sequence (P05067 18-770): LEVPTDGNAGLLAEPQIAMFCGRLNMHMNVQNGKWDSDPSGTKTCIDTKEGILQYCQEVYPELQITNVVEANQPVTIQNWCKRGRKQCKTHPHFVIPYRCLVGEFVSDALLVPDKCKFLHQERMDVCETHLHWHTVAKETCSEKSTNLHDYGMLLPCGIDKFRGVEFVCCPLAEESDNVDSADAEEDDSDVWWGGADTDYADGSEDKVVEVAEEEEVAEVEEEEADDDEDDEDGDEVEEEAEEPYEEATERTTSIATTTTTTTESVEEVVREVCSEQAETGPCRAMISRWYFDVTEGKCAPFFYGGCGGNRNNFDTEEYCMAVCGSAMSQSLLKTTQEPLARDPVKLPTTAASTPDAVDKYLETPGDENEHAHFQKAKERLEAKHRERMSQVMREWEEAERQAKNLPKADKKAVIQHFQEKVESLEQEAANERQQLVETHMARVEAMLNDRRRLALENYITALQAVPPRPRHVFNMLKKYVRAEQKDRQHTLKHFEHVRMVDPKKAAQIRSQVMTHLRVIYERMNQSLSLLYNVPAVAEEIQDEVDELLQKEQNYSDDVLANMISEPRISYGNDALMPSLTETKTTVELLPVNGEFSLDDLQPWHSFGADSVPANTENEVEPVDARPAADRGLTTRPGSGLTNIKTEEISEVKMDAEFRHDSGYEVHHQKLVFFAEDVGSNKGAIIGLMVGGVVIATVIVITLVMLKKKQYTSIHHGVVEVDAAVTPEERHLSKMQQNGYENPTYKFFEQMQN

Regarding DDVAYCGLKY (peptide, not shown: small tags and cut ends) [N3-4A-F (single amino acid N3 mutant N3-4A with Flag epitope)], in assay [1], the binding result is “no binding (tested: 40 µM)”. Regarding DAVYYCGLKY (peptide, not shown: small tags and cut ends, also called BRI2-derived peptide) [N3-2A fused to a C-terminal Flag epitope (N3-2A-F)], in assay [2], the binding result is “no binding (tested: 40 µM)”.
